Laboratory results as given in the supplement of paper PMC5998384.

How the values were obtained:
HeLa Kyoto [1] = test: solubility in G1/S (NP-40 vs SDS abundance) (log2 ratio); higher = more soluble; conditions: cell cycle stage: G1/S
HeLa Kyoto [2] = test: melting temperature (median over replicates), in situ; higher = more thermally stable
HeLa Kyoto [3] = test: thermal stability score vs G1/S (z-score of summed log2 fold changes over temperatures); higher = more thermally stable than in G1/S
HeLa Kyoto [4] = test: solubility change mitosis vs G1/S (difference of NP-40 vs SDS log2 ratios) (log2 ratio difference); higher = more soluble in mitosis
[5] = cell cycle stage: early G1 (4.5 h after nocodazole release)
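Throughout, for melting temperature (median over replicates), in situ: HeLa Kyoto cells synchronized by double thymidine or nocodazole block, proteins quantified by TMT10plex mass spectrometry, three independent biological replicates.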
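Throughout, for solubility change mitosis vs G1/S (difference of NP-40 vs SDS log2 ratios): synchronized HeLa Kyoto cells (double thymidine block for G1/S, nocodazole release for mitosis), protein amounts in NP-40 versus SDS lysates quantified by mass spectrometry, three biological replicates.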
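Throughout, for solubility in G1/S (NP-40 vs SDS abundance): HeLa Kyoto cells arrested at G1/S by double thymidine block, proteins quantified by TMT10plex mass spectrometry in mild NP-40 versus SDS extracts, three biological replicates.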
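Throughout, for thermal stability score vs G1/S (z-score of summed log2 fold changes over temperatures): synchronized HeLa Kyoto cells, proteins quantified by TMT10plex mass spectrometry, three biological replicates, mitosis taken 0.5 h after nocodazole release, G1/S directly after double thymidine block.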

Substance | solubility in G1/S (log2) (HeLa Kyoto [1]) | melting temperature (HeLa Kyoto [2]; cell cycle stage: G1/S) | melting temperature (HeLa Kyoto [2]; cell cycle stage: mitosis) | thermal stability score (HeLa Kyoto [3]; [5]) | thermal stability score (HeLa Kyoto [3]; cell cycle stage: mitosis) | solubility change mitosis (log2) (HeLa Kyoto [4])
MPLENLEEEGLPKNPDLRIAQLRFLLSLPEHRGDAAVRDELMAAVRDNNMAPYYEALCKSLDWQIDVDLLNKMKKANEDELKRLDEELEDAEKNLGESEIRDAMMAKAEYLCRIGDKEGALTAFRKTYDKTVALGHRLDIVFYLLRIGLFYMDNDLITRNTEKAKSLIEEGGDWDRRNRLKVYQGLYCVAIRDFKQAAELFLDTVSTFTSYELMDYKTFVTYTVYVSMIALERPDLREKVIKGAEILEVLHSLPAVRQYLFSLYECRYSVFFQSLAVVEQEMKKDWLFAPHYRYYVREMRIHAYSQLLESYRSLTLGYMAEAFGVGVEFIDQELSRFIAAGRLHCKIDKVNEIVETNRPDSKNWQYQETIKKGDLLLNRVQKLSRVINM [PSMD6] | -0.15 | 53.3 °C | 53.2 °C | 1 | 1.09 | -0.189
MTATVENLTFQKDTLGNAVDKNTSRLELRSYSLAGRHGSTEPLVLAWSSQFRRLTWGCALDALHRSPCVAASQHGVTHLIRSSRTPHSTRCRKEDAQPGHHGNGAASVTAQARGQRSVLQVPLPVPRSCLFSESFVVSVSSQSRFLASVPGTGVQRSTAADMAASTAAGKQRIPKVAKVKNKAPAEVQITAEQLLREAKERELELLPPPPQQKITDEEELNDYKLRKRKTFEDNIRKNRTVISNWIKYAQWEESLKEIQRARSIYERALDVDYRNITLWLKYAEMEMKNRQVNHARNIWDRAITTLPRVNQFWYKYTYMEEMLGNVAGARQVFERWMEWQPEEQAWHSYINFELRYKEVDRARTIYERFVLVHPDVKNWIKYARFEEKHAYFAHARKVYERAVEFFGDEHMDEHLYVAFAKFEENQKEFERVRVIYKYALDRISKQDAQELFKNYTIFEKKFGDRRGIEDIIVSKRRFQYEEEVKANPHNYDAWFDYLRLVESDAEAEAVREVYERAIANVPPIQEKRHWKRYIYLWINYALYEELEAKDPERTRQVYQASLELIPHKKFTFAKMWILYAQFEIRQKNLSLARRALGTSIGKCPKNKLFKVYIELELQLREFDRCRKLYEKFLEFGPENCTSWIKFAELETILGDIDRARAIYELAISQPRLDMPEVLWKSYIDFEIEQEETERTRNLYRRLLQRTQHVKVWISFAQFELSSGKEGSLTKCRQIYEEANKTMRNCEEKEERLMLLESWRSFEEEFGTASDKERVDKLMPEKVKKRRKVQTDDGSDAGWEEYFDYIFPEDAANQPNLKLLAMAKLWKKQQQEKEDAEHHPDEDVDESES [CRNKL1] | -0.64 | 47.4 °C | 48 °C | 1.73 | 2.31 | 0.252
RHOT2 | -0.00866 | 50.7 °C | 50.5 °C | -0.0452 | -0.352 | -0.0417
MTTSHQPQDRYKAVWLIFFMLGLGTLLPWNFFMTATQYFTNRLDMSQNVSLVTAELSKDAQASAAPAAPLPERNSLSAIFNNVMTLCAMLPLLLFTYLNSFLHQRIPQSVRILGSLVAILLVFLITAILVKVQLDALPFFVITMIKIVLINSFGAILQGSLFGLAGLLPASYTAPIMSGQGLAGFFASVAMICAIASGSELSESAFGYFITACAVIILTIICYLGLPRLEFYRYYQQLKLEGPGEQETKLDLISKGEEPRAGKEESGVSVSNSQPTNESHSIKAILKNISVLAFSVCFIFTITIGMFPAVTVEVKSSIAGSSTWERYFIPVSCFLTFNIFDWLGRSLTAVFMWPGKDSRWLPSLVLARLVFVPLLLLCNIKPRRYLTVVFEHDAWFIFFMAAFAFSNGYLASLCMCFGPKKVKPAEAETAGAIMAFFLCLGLALGAVFSFLFRAIV [SLC29A1] | -0.149 | 58.4 °C | 61.1 °C | 1.53 | 0.495 | -0.151
MGRRSRGRRLQQQQRPEDAEDGAEGGGKRGEAGWEGGYPEIVKENKLFEHYYQELKIVPEGEWGQFMDALREPLPATLRITGYKSHAKEILHCLKNKYFKELEDLEVDGQKVEVPQPLSWYPEELAWHTNLSRKILRKSPHLEKFHQFLVSETESGNISRQEAVSMIPPLLLNVRPHHKILDMCAAPGSKTTQLIEMLHADMNVPFPEGFVIANDVDNKRCYLLVHQAKRLSSPCIMVVNHDASSIPRLQIDVDGRKEILFYDRILCDVPCSGDGTMRKNIDVWKKWTTLNSLQLHGLQLRIATRGAEQLAEGGRMVYSTCSLNPIEDEAVIASLLEKSEGALELADVSNELPGLKWMPGITQWKVMTKDGQWFTDWDAVPHSRHTQIRPTMFPPKDPEKLQAMHLERCLRILPHHQNTGGFFVAVLVKKSSMPWNKRQPKLQGKSAETRESTQLSPADLTEGKPTDPSKLESPSFTGTGDTEIAHATEDLENNGSKKDGVCGPPPSKKMKLFGFKEDPFVFIPEDDPLFPPIEKFYALDPSFPRMNLLTRTTEGKKRQLYMVSKELRNVLLNNSEKMKVINTGIKVWCRNNSGEEFDCAFRLAQEGIYTLYPFINSRIITVSMEDVKILLTQENPFFRKLSSETYSQAKDLAKGSIVLKYEPDSANPDALQCPIVLCGWRGKASIRTFVPKNERLHYLRMMGLEVLGEKKKEGVILTNESAASTGQPDNDVTEGQRAGEPNSPDAEEANSPDVTAGCDPAGVHPPR [NSUN2] | 0.0447 | 46.6 °C | 49.2 °C | 5.62 | 11.8 | -0.00496
